According to US20220332769A1:

Key:
Test in all cases: cell-based or functional assay
[1] = molecular target: SARS CoV-1 spike on pseudotyped lentivirus (CoV-1 PVP) (SARS CoV-1) (UniProt P59594)
[2] = molecular target: Spike protein of live SARS CoV-2 virus (original USA-WA1/2020 strain) (SARS CoV-2) (UniProt P0DTC2)
[3] = molecular target: MERS spike on pseudotyped lentivirus (MERS-PVP) (MERS coronavirus) (UniProt K9N5Q8)

Substance: ACE2-VGTM MVP (decoy multivalent particle displaying ACE2 fused with VSVG transmembrane domain)
- IC50, CoV-1 pseudovirus microneutralization assay, 293T/ACE2 target cells [1]: 0.13 pM
- IC50, CoV-1 pseudovirus neutralization assay, VERO-E6 target cells [1]: 0.44 pM
- IC50, live CoV-2 virus microneutralization assay [2]: 57 pM
- IC50, live virus PRNT assay, USA-WA1/2020 strain [2]: 0.98 pM
- reduction of viral titer, live CoV-2 virus microneutralization assay [2]: > 6 logs

Substance: Recombinant DPP4 protein (from UniProt P27487 39-766) (receptor)
- IC50, MERS pseudovirus microneutralization assay, H1650 target cells [3]: > 48000 pM

Substance: NA75-DPP4 MVP (DPP4 extracellular domain fused to influenza neuraminidase N-terminus and transmembrane regions) (from UniProt P27487 30-766)
- IC50, MERS pseudovirus neutralization assay, H1650 target cells [3]: 0.87 pM

Substance: HCΔ-DPP4 MVP (decoy multivalent particle displaying DPP4 extracellular domain fused to measles HCΔ18)
- IC50, MERS pseudovirus microneutralization assay, H1650 target cells [3]: 2.96 pM
